The target of one test is T1, hu-CD226 His tag (human, UniProt Q15762 19-247, limits assumed, biotinylated).
T1 sequence (looked up): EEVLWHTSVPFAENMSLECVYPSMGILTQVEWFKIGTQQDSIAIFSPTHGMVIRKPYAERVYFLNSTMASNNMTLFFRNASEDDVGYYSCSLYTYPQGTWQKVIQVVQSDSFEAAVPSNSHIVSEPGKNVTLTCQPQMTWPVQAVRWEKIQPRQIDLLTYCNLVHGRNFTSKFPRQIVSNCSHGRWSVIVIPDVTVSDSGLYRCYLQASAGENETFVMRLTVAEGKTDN
As to the kind of experiment: SPR 25C, biotin-CD226-His captured, IgG analyte. On the procedure:
(§1) To determine the binding affinity to hu-CD226 and cy-CD226 of mAb1.v7.NGS8, h10G1, hCD155 and anti-hCD226 antibody DX11 (Abcam, cat #Ab33397), SPR measurement with a BIACORE™ 8K instrument was performed. Briefly, a 1:4 dilution of Biotin CAPture Reagent (GE Healthcare) into HBS-EP buffer (0.01 M HEPES pH 7.4, 0.15 M NaCl, 3 mM EDTA, 0.005% Surfactant P20) was applied to the chip at 2 µL/min flow rate. For the kinetics measurements, 5 µg/ml of biotinylated hu-CD226 His tag (Sino biological, cat #10565-H08H) and cy-CD226 His tag (Arco biosystems, cat #DN1-052H9) was captured at 10 µL/min to achieve ~50 response units in the second flow cell (FC2). FC1 was kept as a reference. Next, 3-fold serial dilutions of IgG in HBS-P buffer (0.01 M HEPES pH 7.4, 0.15 M NaCl, 0.005% surfactant P20) from low (1.3 nM) to high (1000 nM) concentration were injected (flow rate: 30 µL/min) at 25° C. The sensorgram was recorded and subject to reference and buffer subtraction before evaluating by BIACORE® 8K Evaluation Software (version 1.1.1.7442). Association rates ($kon$) and dissociation rates ($koff$) were calculated using a simple one-to-one Langmuir binding model. The equilibrium dissociation constant (K_D) value was calculated as the ratio of $koff/kon$. […]

A further test concerns the target T2, cy-CD226 His tag (cynomolgus monkey, UniProt A0A2K5W1Z6 19-247, biotinylated).
T2 sequence: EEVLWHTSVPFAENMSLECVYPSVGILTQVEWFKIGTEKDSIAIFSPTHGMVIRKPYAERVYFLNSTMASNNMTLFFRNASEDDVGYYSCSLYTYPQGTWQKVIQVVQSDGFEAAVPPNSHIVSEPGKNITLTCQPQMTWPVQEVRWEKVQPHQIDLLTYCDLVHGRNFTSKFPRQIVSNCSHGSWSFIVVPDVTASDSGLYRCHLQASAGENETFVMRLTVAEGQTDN
The test is described as follows: SPR 25C, biotin-CD226-His captured, IgG analyte. Here is the method:
as §1

For test [1], the target named is T3, cy-CD96 (soluble, extracellular domain) (cynomolgus monkey, UniProt P40200 22-516 (human entry), biotinylated in Octet and blocking ELISA).
T3 construct: the assays name only cy-CD96; also called biotinylated cy-CD96
T3 chain: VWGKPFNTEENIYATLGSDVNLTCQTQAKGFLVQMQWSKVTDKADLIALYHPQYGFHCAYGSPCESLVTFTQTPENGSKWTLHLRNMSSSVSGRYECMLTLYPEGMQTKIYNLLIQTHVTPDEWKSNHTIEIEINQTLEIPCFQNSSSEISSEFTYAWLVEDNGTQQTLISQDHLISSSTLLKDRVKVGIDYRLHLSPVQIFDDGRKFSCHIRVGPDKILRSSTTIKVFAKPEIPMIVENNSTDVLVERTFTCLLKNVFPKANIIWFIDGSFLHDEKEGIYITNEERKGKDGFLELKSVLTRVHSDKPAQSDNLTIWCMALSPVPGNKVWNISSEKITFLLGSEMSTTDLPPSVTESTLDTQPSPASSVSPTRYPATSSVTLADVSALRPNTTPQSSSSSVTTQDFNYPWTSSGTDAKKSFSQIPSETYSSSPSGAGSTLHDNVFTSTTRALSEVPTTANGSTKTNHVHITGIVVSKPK
The test is described as follows: SPR 25C, IgG on Protein A, CD96 analyte. On the procedure:
SPR measurement with a BIACORE™ 8K instrument was performed to determine the monovalent binding affinity of mAb1.v7 and h10G1 IgG to hu-CD96, cy-CD96, and mo-CD96. Briefly, antibodies were diluted at 0.5 µg/mL in HBS-P buffer (0.01 M HEPES pH 7.4, 0.15 M NaCl, 0.005% Surfactant P20) and applied to the Protein A chip at 30 µL/min flow rate for 60 s in flow cell 2 (FC2). Then 3-fold serial dilutions of hu-CD96, cy-CD96, or mo-CD96 in HBS-P buffer (0.01 M HEPES pH 7.4, 0.15 M NaCl, 0.005% surfactant P20) from (0.4 nM) to high (100 nM) were injected (flow rate: 30 µL/min) at 25° C. to both flow cell 1 (FC1) and flow cell 2 (FC2). The sensorgram was recorded and subject to reference and buffer subtraction before evaluating by BIACORE® 8K Evaluation Software (version 1.1.1.7442). Association rates ($kon$) and dissociation rates ($koff$) were calculated using a simple one-to-one Langmuir binding model.

The target of a further test is T4, hu-CD96 Fc (human, biotinylated in Table 16).
T4 construct: also called biotinylated hu-CD96-Fc
As to the kind of experiment: SPR (Biacore), Fab. For orientation: Surface plasmon resonance follows binding to a sensor surface in real time, without labels.

For orientation: Kd means the equilibrium constant for the complex coming apart. Low values mean higher affinity, high ones lower affinity. As usually defined, the koff is a measure of how fast the partners let go of each other. Low values mean slow dissociation, high ones fast dissociation. One may read the kon as a measure of how fast the partners come together. The low end stands for slow association, the high end for fast association.

B1: h10G1 IgG (humanized 10G1) (antibody, V domains shown)
VH: EIQLVQSGSELKKPGASVKVSCKASGYPFTTYGMSWVRQAPGQGLEWMGWINTDSGVPTYADDFKGRFVFSLDTSVSTAYLQISSLKAEDTAVYFCARNIYYGWGNFDYWGQGTLVTVSS
VL: EIVMTQSPDFQSVTPKEKVTITCRASQDIYRNLHWYQQKPDQTPKLLIKHASDSISGIPSRFSGSGSGTDFTLTINSLEAEDAAAYYCLQGYSMPYTFGGGTKVEIKG
notes: human IgG1 N297G
With B1, the binding result with hu-CD226 His tag and with cy-CD226 His tag was “no binding (tested: 1000 nM highest)” each time. The affinity in test [1], expressed as Kd, was 0.74 nM.

B2: mAb1.v7 Fab (Fab, V domains shown)
VH: EVQLVQSGAEVKKPGASVKVSCKASGFTFTNNWMHWVRQAPGQGLEWIGMIHPNSGITNINEKFKNRVTMTTDTSTSTAYMELRSLRSEDTAVYYCRSDGTYEGYFDYWGQGTLVTVSS
VL: DIQLTQSPSSLSASVGDRVTITCKASQNVGTAIVWYQQKPGKAPKVLIYSASTRYTGVPSRFSGSGSGTDFTLTISSLQPEDFATYYCQQYSSSPLTFGQGTKVEIK
In the test with hu-CD96 Fc, B2 came in with a Kd of 44.6 nM, a koff of 0.000817 s⁻¹ and a kon of 18300 M⁻¹ s⁻¹.

Values taken from patent US12365732 (23ANDME, dated 2025).
